System: peptide library, one residue held at a place counted from the Y acceptor
Assay: relative phosphorylation of the sub-library (ratio to the mean residue at this position); higher = residue favoured
Method in brief: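 Peptide library mixtures, biotinylated and centred on Tyr, each fixed one residue at one position from −5 to +5. Purified recombinant kinases were incubated with them for 90 min in 384-well plates alongside 50 μM ATP and γ-32P-ATP, and the captured, rinsed peptides on streptavidin membranes were measured by phosphorimaging and ImageQuant. Normalization divided each position's intensities by the sum of its 18 randomized residues (16 for the Ser/Thr-free library) and multiplied by that number, so that values give phosphorylation relative to the mean randomized residue.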

Chain of NTRK3, construct: aa510-end, human (Q16288 510-839, looked up): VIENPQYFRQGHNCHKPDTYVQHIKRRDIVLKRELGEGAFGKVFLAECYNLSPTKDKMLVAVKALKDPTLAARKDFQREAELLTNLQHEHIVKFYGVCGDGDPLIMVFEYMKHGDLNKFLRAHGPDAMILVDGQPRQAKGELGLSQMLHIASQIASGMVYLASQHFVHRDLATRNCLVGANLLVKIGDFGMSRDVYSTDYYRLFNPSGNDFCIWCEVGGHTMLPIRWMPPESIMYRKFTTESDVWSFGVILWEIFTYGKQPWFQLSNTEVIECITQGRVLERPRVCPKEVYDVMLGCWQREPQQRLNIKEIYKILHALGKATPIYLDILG
Chain of PDGFRA, construct: aa550-end, human (P16234 550-1089, looked up): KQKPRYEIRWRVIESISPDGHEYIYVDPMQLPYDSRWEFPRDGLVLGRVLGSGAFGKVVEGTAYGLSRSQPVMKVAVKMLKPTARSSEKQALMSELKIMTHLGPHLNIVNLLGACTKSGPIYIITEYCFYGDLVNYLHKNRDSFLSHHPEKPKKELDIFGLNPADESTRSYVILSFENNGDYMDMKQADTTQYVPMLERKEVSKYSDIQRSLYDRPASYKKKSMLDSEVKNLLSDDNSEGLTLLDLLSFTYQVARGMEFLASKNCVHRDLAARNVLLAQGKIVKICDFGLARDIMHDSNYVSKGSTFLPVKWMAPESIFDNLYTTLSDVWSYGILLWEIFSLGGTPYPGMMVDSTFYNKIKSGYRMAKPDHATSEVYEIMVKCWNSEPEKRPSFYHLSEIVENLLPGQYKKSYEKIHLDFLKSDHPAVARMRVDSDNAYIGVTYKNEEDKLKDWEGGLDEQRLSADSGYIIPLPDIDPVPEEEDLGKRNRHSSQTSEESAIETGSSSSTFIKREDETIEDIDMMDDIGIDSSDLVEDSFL

NTRK3, construct: aa510-end, human (from UniProt Q16288)
relative phosphorylation
Details | at +1 | at +2 | at +3 | at +4 | at +5 | at -1 | at -2 | at -3 | at -4 | at -5
A fixed | 1.69 | 0.892 | 0.734 | 0.952 | 1.02 | 0.783 | 1.09 | 0.974 | 1.11 | 1.07
D fixed | 0.49 | 0.785 | 0.467 | 0.945 | 0.698 | 2.14 | 1.23 | 1.2 | 1.15 | 1.18
E fixed | 0.8 | 1.08 | 0.378 | 1.29 | 0.752 | 1.3 | 1.51 | 1.47 | 1.61 | 1.17
F fixed | 1.63 | 1.19 | 1.77 | 1.06 | 1.2 | 0.893 | 0.809 | 1.08 | 1.33 | 0.973
G fixed | 0.753 | 0.459 | 0.63 | 1.37 | 1.12 | 0.495 | 1.19 | 1.08 | 1.22 | 1.35
H fixed | 1.43 | 0.887 | 0.884 | 1.15 | 1.21 | 1.47 | 1.1 | 1.26 | 0.913 | 0.977
I fixed | 1.77 | 1.04 | 2.41 | 0.792 | 0.939 | 1.38 | 0.831 | 0.755 | 0.902 | 0.965
K fixed | 0.14 | 0.714 | 0.269 | 0.674 | 0.867 | 0.149 | 0.635 | 0.559 | 0.657 | 0.717
L fixed | 0.821 | 1.09 | 2.05 | 0.72 | 1 | 1.24 | 0.776 | 0.724 | 0.961 | 0.986
M fixed | 1.53 | 1.08 | 1.55 | 1.11 | 0.978 | 0.745 | 0.654 | 0.775 | 0.753 | 1.02
N fixed | 0.322 | 1.11 | 0.403 | 0.855 | 0.687 | 2.5 | 1.17 | 1.41 | 0.809 | 1.22
P fixed | 0.269 | 0.874 | 0.906 | 1.63 | 1.6 | 1.11 | 1.12 | 0.994 | 1.14 | 1.18
Q fixed | 0.686 | 1.02 | 0.485 | 0.908 | 0.702 | 0.756 | 1.11 | 0.791 | 1.01 | 0.943
R fixed | 0.173 | 1.05 | 0.375 | 0.821 | 0.975 | 0.196 | 0.731 | 0.682 | 0.641 | 0.87
S fixed | 0.83 | 1.02 | 0.77 | 0.869 | 0.961 | 0.701 | 1.2 | 1.14 | 0.748 | 0.814
T fixed | 0.871 | 0.983 | 0.741 | 0.862 | 0.919 | 0.784 | 1 | 1.04 | 0.684 | 0.88
V fixed | 1.95 | 0.976 | 1.64 | 0.786 | 0.807 | 0.872 | 0.87 | 0.738 | 0.823 | 0.734
W fixed | 1.85 | 1.76 | 1.54 | 1.21 | 1.55 | 0.48 | 0.989 | 1.32 | 1.53 | 0.951
pThr fixed | 1.61 | 0.745 | 0.374 | 0.914 | 0.625 | 0.999 | 1 | 0.982 | 0.995 | 0.973
pTyr fixed | 2.92 | 1.81 | 0.837 | 1.17 | 0.96 | 7.29 | 1.63 | 1.86 | 1.64 | 1.2

PDGFRA, construct: aa550-end, human (from UniProt P16234)
relative phosphorylation
Details | at +1 | at +2 | at +3 | at +4 | at +5 | at -1 | at -2 | at -3 | at -4 | at -5
A fixed | 0.719 | 0.633 | 0.549 | 0.784 | 0.982 | 0.729 | 1.02 | 0.85 | 1.04 | 0.882
D fixed | 0.273 | 0.434 | 0.302 | 0.674 | 0.645 | 1.32 | 0.947 | 0.97 | 0.898 | 0.812
E fixed | 0.492 | 0.583 | 0.198 | 0.613 | 0.565 | 0.962 | 0.814 | 1.14 | 0.849 | 0.737
F fixed | 2.05 | 1.59 | 1.61 | 1.05 | 1.35 | 1.37 | 0.853 | 0.954 | 1.21 | 1.11
G fixed | 0.34 | 0.427 | 0.755 | 0.98 | 0.943 | 0.594 | 1.09 | 1.07 | 1.08 | 1.03
H fixed | 1.43 | 1.02 | 0.972 | 1.34 | 1.1 | 1.47 | 1.01 | 1.09 | 0.962 | 1.15
I fixed | 1.66 | 1.03 | 2.09 | 0.922 | 0.999 | 1.36 | 0.94 | 0.823 | 0.916 | 1.1
K fixed | 0.699 | 1.12 | 1.02 | 1.05 | 1.08 | 0.509 | 0.835 | 0.959 | 1.06 | 0.995
L fixed | 1.31 | 1.4 | 1.53 | 0.808 | 1.12 | 1.18 | 1 | 0.905 | 1.06 | 1.11
M fixed | 1.13 | 1.2 | 1.13 | 1.17 | 1.02 | 0.892 | 1 | 0.967 | 0.878 | 1.1
N fixed | 0.671 | 0.856 | 0.748 | 0.987 | 0.967 | 1.49 | 1.06 | 1.13 | 0.832 | 1.07
P fixed | 0.31 | 0.863 | 0.928 | 1.11 | 0.943 | 0.931 | 1.34 | 1.08 | 1.06 | 0.885
Q fixed | 1.25 | 0.928 | 0.632 | 1.01 | 0.92 | 1.07 | 1.13 | 1.11 | 1.07 | 1.04
R fixed | 0.768 | 1.56 | 1.19 | 1.49 | 1.17 | 0.55 | 1.03 | 1.09 | 1.05 | 1.19
S fixed | 0.655 | 0.633 | 0.604 | 0.91 | 0.932 | 0.694 | 1.03 | 1.02 | 0.801 | 0.817
T fixed | 0.848 | 0.606 | 0.793 | 0.97 | 0.888 | 0.945 | 0.917 | 0.977 | 0.745 | 0.856
V fixed | 1.92 | 0.851 | 1.62 | 0.839 | 0.98 | 1.02 | 0.954 | 0.778 | 0.894 | 0.86
W fixed | 1.46 | 2.27 | 1.33 | 1.31 | 1.39 | 0.91 | 1.03 | 1.07 | 1.6 | 1.26
pThr fixed | 0.498 | 0.395 | 0.237 | 0.467 | 0.482 | 0.675 | 0.695 | 0.693 | 0.744 | 0.786
pTyr fixed | 1.75 | 1.49 | 0.414 | 0.788 | 0.626 | 1.09 | 0.876 | 1.12 | 1.16 | 1.02

Reference: the supplement of paper PMC11136658
